Test results taken from US10883116B2, “Transduction buffer” (Koninklijke Nederlandse Akademie van Wetenschappen, priority 2013, dated 2021).
“Also recorded” adds a separate entry of the source.

Columns and labels:
KBM7 cells [1] = assay: CRE recombinase reporter in KBM7 cells, Cas9-adapted transduction buffer; assay type: cell-based, human; conditions: 1250 mOsmol/Kg, 250 mM GABA
Procedure: (C) Top panel. Schematic depiction of the CRE recombinase reporter. […] Untransduced cells express Red fluorescent protein. […] Bottom panel. KBM7 cells transduced with CRE protein with osmocytosis media at 1250 mOsmol/Kg with 250 mM GABA (compound #20) during 60 minutes. Upper panels represent fluorescent pictures in green and red channel. Bottom panels represent FACS plots showing in x axes green fluorescence and in y axes red fluorescence or frequency of events. Percentages of events are depicted in the corresponding area.
To further test the duration of the transduction with the modified transduction buffer, we performed a Cre recombinase protein transduction at 1250 mOsmol/Kg and 250 mM GABA at different time points and measured the percentage of cells with successful cre-mediated reporter activation as well as BrdU incorporation as a measure of cell proliferation and survival. Under these conditions, the optimal transduction time based on cell survival and Cre transduction was around 60 minutes. At those time points, one round of Cre protein transduction gave an 80% of GFP positive KBM7 cells. And two subsequent rounds of Cre protein transduction yielded 94% positive KBM7 (FIG. 19C). A second round of protein transduction didn't affect cell survival rate.

KBM7 cells [2] = assay type: cell-based; conditions: human, 250 mM
Procedure: (B) BrdU incorporation rate was determined in KBM7 cells incubated with osmocytosis buffer with NDSB-201 or GABA at different time points. Untreated cells were considering as 100% of BrdU incorporation.
Next we optimized the transduction media to allow the transduction of recombinant Cas9. […] For this reason we developed a “Cas9-adapted transduction protocol” (the “fourth protocol”) with a final osmolality of 1250 mOsmol/Kg and a concentration of 250 mM of NDSB-201 (transduction compound #01) or other transduction compounds selected from the FIGS. 7A-7D. We expected that higher osmolalities and NDSBs will induce faster protein transduction but also could possibly increase the cellular toxicity. To characterize this new transduction conditions we measured BrdU incorporation upon high osmolarity (1250 mOsm/Kg) transduction at different short time points, in KBM7 cells.

[3] = system: murine embryonic fibroblasts (MEFs); assay: β-Lactamase protein transduction assay (CCF2-AM), protocol 3/700
Source text: To further characterize the protein transduction process we analyzed the effect of time, osmolality, transduction compound concentration and protein concentration on the transduction process. To this end, we set up a β-Lactamase protein transduction assay and measured intracellular β-Lactamase activity using CCF2-AM, an intracellular fluorescent β-Lactamase substrate that changes emission wavelength when cleaved by the enzyme (FIG. 3A). […] While we used the immortalized COS7 cell line in our initial studies, we wanted to know if the compound-mediated protein transduction would also allow the transduction of protein into primary cells. We therefore transduced murine embryonic fibroblasts (MEFs) with β-Lactamase (1 μM final concentration), using NaCl-adjusted hypertonic media (700 mOsm/Kg) and 25 mM NDSB201. β-Lactamase activity was set at 1 at the start of the experiment and relative intracellular β-Lactamase activity was measured as a function of time (FIG. 3B, bars). As a control, β-Lactamase transduction was measured in isotonic media in the presence of 25 mM NSDB201 (FIG. 3B, open circles).
β-lactamase transduction was performed using the 3/700 protocol above in murine embryonic fibroblasts (MEFs). A black, clear-bottom 96 well-plate was coated with 0.15 mg/ml of Poly-D-Lysine for 1 h at room temperature. 12,000 MEFs cells were seeded per well in MEF media without antibiotics. Next day, cells were transduced using the transduction protocol 3/700 as describe above. […] Na- or Rb-salt was added to adjust the final tonicity to 700 mOsm/Kg. […] After 3 hrs., the transduction media was replaced by fresh MEF media for 30 min. Subsequently, cells were washed once with phenol-red-free DMEM. β-lactamase activity was measured using the CCF2-AM kit following the manufacturer's instructions. In brief, 120 μl of CCF2-AM loading media was added per well and cells were incubated for 1 h at room temperature. Cells were washed two times with DMEM phenol-red free and incubated for an additional 30-60 min. Fluorescence emission was measured at […] and 510 nm following manufacturer's instructions. All tests were done in triplicate.

[4] = system: GFP-expressing murine embryonic fibroblasts (MEFs); assay: Macropinocytosis mediated uptake of TMR-dextran and BSA, confocal microscopy; assay type: cell-based; conditions: 100 μM EIPA 30 min before and during transduction
Procedure: To assess if the transduction buffer would permit the simultaneous transduction of proteins and large molecules, we analyzed macropinocytosis mediated uptake of TMR-dextran (red) and fluorescently labeled BSA protein (cyan) by GFP-expressing murine embryonic fibroblasts (MEFs). In brief, MEFs expressing eGFP protein (green) were incubated with 5 μg/ml of high molecular weight TMR-Dextran (red) and 1 μg of BSA-Alexa-647 (far-red) in 1× transduction media (protocol 700/3) for 30 min. Subsequently, cells were washed twice in 1× transduction buffer. Finally, cells were maintained in 1× transduction buffer and immediately analyzed by confocal microscopy. Dextran and BSA uptake was inhibited by incubating cells with 100 μM Ethylisopropylamiloride (EIPA) 30 min before and during transduction procedure.

[5] = system: MEFs cells expressing GAL3-GFP protein; assay: GAL3-GFP macropinosome vesicle leakage reporter assay; conditions: 700/3 conditions
Procedure: Schematic representation of the GAL3-GFP reporter assay. Upon initiation of transduction, extracellularly applied protein is taken up into macropinosomes (grey vesicles). […] At the same time, the compromised macropinosome membrane now allows entry of cytosolic GAL3-GFP protein, which binds to—and accumulates at the intra-macropinosome carbohydrates resulting in a bright fluorescent signal (white vesicles). […] GAL3-GFP cells were incubated with transduction media at 700 mOsmol/Kg with or without the macropinocytosis inhibitor EIPA. Untreated cells were included as negative control.
For transduction to occur, proteins that have been taken by macropinocytosis have to be released into the cytosol. […] To test the efficacy of potential transduction compound candidates, we set up an assay to monitor macropinosome vesicle permeation. […] We set up a reporter system in which Galectin-3 protein is fused to GFP (GAL3-GFP). Cytosolic GAL3-GFP protein relocalises to the interior of permeabilized macropinosomes, whereby a multimer complex is formed with intense green fluorescent emission. MEFs cells expressing GAL3-GFP protein were transduced using the 700/3 conditions.

[6] = system: human induced pluripotent stem cells (iPSCs); assay: CRE recombinase dsRed-to-eGFP reporter, flow cytometry
[7] = system: human iPSC-derived glial cells and neurons; assay: CRE reporter in human iPSC-derived glial cells and neurons; assay type: cell-based; conditions: 5 μM CRE
Source text: (§1) A similar strategy of CRE-recombinase mediated red-to-green reporter shift as described above, was utilized to assess the transduction of murine and human neurons, glia and neural stem cells. FIG. 10A depicts a schematic representation of the assay. […] Since the fluorescent reporter construct was introduced into the iPSC-derived glial cells and neurons using lentiviral infection, cells likely incorporated multiple copies of this reporter.

[8] = system: murine embryonic stem cells (mESCs); assay: CRE recombinase Lox-Stop-Lox-eGFP reporter, flow cytometry
Source text: To explore protein transduction of murine embryonic stem cells in more detail, we used a transgenic mESC line in which a CRE-recombinase inducible reporter was stably integrated in the ColA1 locus^2. […] Next we tested whether protein transduction affected ESC proliferation. After two rounds of CRE-protein transduction, the doubly transduced cells in FIG. 8B were trypsinized, seeded onto MEFs feeders, and cell proliferation was monitored by cell counting. Untransduced cells were used as a control. […] Next we explored the expression of key pluripotency factors in the double transduced mESCs by qRTPCR. […] To test the pluripotency of the transduced mESCs, double-transduced GFP+ ESCs from the experiment in FIG. 8B were injected into host blastocyst embryos and transplanted into pseudopregnant foster mice.

murine ESCs = assay: ESC proliferation by cell counting after CRE transduction; assay type: cell-based; conditions: with or without Tat-HA2 fusion peptide
Source text: Top & bottom graph. After 2 days, transduced (white circle) or untransduced (grey bars) cells were counted every day to make cell proliferation curves.
Untransduced cells were used as a control.

murine neurospheres = assay: CRE reporter in murine neurospheres; assay type: cell-based; conditions: CRE protein transduction, protocol 12/500
Source text: as §1
Neurospheres were transferred to a 96 well plate with 80 μl of the neuronal stem cells media. Right after, 20 μl of CRE in 5× Transduction buffer was added to cell and mixed carefully.

Question: `NCCCC(=O)O` [Compound #20, gamma-aminobutyric acid] was tested. Which “optimal transduction time based on cell survival and Cre transduction” value (KBM7 cells [1]) did it give?
Answer: Its value is “around 60 minutes”.

Question: What about the “cell survival (BrdU incorporation) in KBM7” value (KBM7 cells [2]) of the same molecule?
Answer: The value was “much better survival than NDSB-201”.

Question: And the “β-lactamase transduction activity when combined with reference compound #01 (reference set at 100%)” value ([3]; equimolar with NDSB201 (#01), 12.5 mM each, total 25 mM, 3 hours, 700 mOsm/Kg)?
Answer: The value was “largely unchanged”.

Question: Which results are given for `CCN(c1nc(N)c(C(=O)N=C(N)N)nc1Cl)C(C)C` [EIPA, 5-(N-ethyl N-isopropyl)-amiloride, reference compound]?
Answer: effect on Dextran and BSA transduction [4]: inhibited; effect on protein transduction in the presence of FGF and PDGF ([3]; 700 mOsm/Kg, 25 mM NDSB201): completely blocked protein transduction; effect of endocytic pathway inhibitor on protein transduction ([3]; 3 hours, 1 μM β-lactamase, 700 mOsm/Kg NaCl, 25 mM NDSB201): strongly inhibited; also recorded: completely inhibits protein transduction; Gal3-GFP localisation to macropinocytic vesicles (vesicle leakage) [5]: did not relocalize to vesicles

B1: CRE protein: recombinant CRE recombinase protein (protein, UniProt P06956 1-343, looked up)
Recombinase cre: MSNLLTVHQNLPALPVDATSDEVRKNLMDMFRDRQAFSEHTWKMLLSVCRSWAAWCKLNNRKWFPAEPEDVRDYLLYLQARGLAVKTIQQHLGQLNMLHRRSGLPRPSDSNAVSLVMRRIRKENVDAGERAKQALAFERTDFDQVRSLMENSDRCQDIRNLAFLGIAYNTLLRIAEIARIRVKDISRTDGGRMLIHIGRTKTLVSTAGVEKALSLGVTKLVERWISVSGVADDPNNYLFCRVRKNGVAAPSATSQLSTRALEGIFEATHRLIYGAKDDSGQRYLAWSGHSARVGAARDMARAGVSIPEIMQAGGWTNVNIVMNYIRNLDSETGAMVRLLEDGD
Question: What does the source list for B1?
Answer: GFP positive KBM7 cells (KBM7 cells [1]; one round, around 60 minutes): 80%; positive KBM7 (KBM7 cells [1]; two subsequent rounds): 94%; cells shifted to eGFP expression ([6]; 5 μM CRE protein, 12 hours at 500 mOsm/Kg, single transduction): 64%; eGFP cells ([6]; double CRE protein transduction, without Tat-HA2 fusion peptide): 78%; eGFP reporter activation [7]: efficient activation of the eGFP reporter; GFP+ ESCs ([8]; 5 μM CRE, two sequential rounds, 12 hrs each at 500 mOsm/Kg with glycerol and glycine): 79%; GFP-positive mESCs ([8]; Okada method (hypertonic/hypotonic), 5 μM CRE-recombinase protein): 6%; ESC proliferation after two rounds of CRE protein transduction (murine ESCs): did not affect ESC proliferation; eGFP reporter activation (murine neurospheres): efficient activation of the eGFP reporter
